In article PMC11053944, “FRET Assays for the Identification of C. albicans HSP90-Sba1 and Human HSP90α-p23 Binding Inhibitors” (Pharmaceuticals, 2024):
Entries after “also recorded” stand apart in the source; their conditions may differ.

How the values were obtained:
[1] = target: T1, C. albicans HSP90-mNeonGreen–Sba1-mScarlet-I binding (Candida albicans, UniProt P46598, E36A); settings: 20 µM added; 1 µM HSP90-mNeonGreen, 2 µM Sba1-mScarlet-I, 5 mM ATP
T1 construct: made in house; host or cells: E. coli BL21(DE3)
Protocol: In this investigation, 1 µM HSP90-mNeonGreen was incubated with 2 µM Sba1-mScarlet-I in reaction buffer containing 5 mM ATP either alone (UC) or with the addition of 20 µM Sba1. As a negative control, samples containing 20 µM bovine serum albumin (BSA) were used.
FRET experiments were carried out in 384-well microtiter plates (Art. No. 3766 Corning, NY, USA, or Art. No. 781906, Greiner Bio-One GmbH, Frickenhausen, Germany) containing a final volume of 20 µL and measured with a microplate reader Infinite M200Pro (Tecan, Männedorf, Switzerland). The fluorescence was measured in three channels: excitation (ex.): 488 nm/emission (em.): 525 nm (mNeonGreen fluorescence), ex.: 561 nm/em.: 610 nm (mScarlet-I fluorescence) and the FRET channel ex.: 488 nm/em.: 610 nm. The excitation and emission bandwidths were set to 9 and 20 nm, respectively. Experiments for the determination of the equilibrium dissociation constants were performed with a filter-based microplate reader Infinite F200Pro (Tecan, Männedorf, Switzerland). The fluorescence was measured in three channels using the following filters: ex.: 485 ± 20 nm/em.: 535 ± 20 nm (mNeonGreen channel), ex.: 535 ± 20 nm/em.: 612 ± 10 nm (mScarlet-I channel) and the FRET channel ex.: 485 ± 20 nm/em.: 612 ± 10 nm. […]

[2] = target: T2, C. albicans HSP90–Sba1 binding (Candida albicans, UniProt P46598); assay: FRET inhibitor screening assay, C. albicans HSP90-Sba1 binding; settings: 10 or 100 µM (Sba1 20 µM), triplicates, 3 mM ATP, 1% DMSO, 15 min 30 °C
T2 construct: made in house; host or cells: E. coli BL21(DE3)
Text: We used the Z′ factor (Z′) to optimize the FRET assays for screening purposes. Z′ represents a simple statistical parameter for the quality assessment and optimization of HTS assays and screening assays in general. It is a measure that determines the degree of signal separation between binding and non-binding data sets. Calculation of the Z′ factor is based on the standard deviation of the individual data sets as well as their general signal separation. Values ≥ 0.5 can be classified as excellent for screening purposes. […] Consequently, the fluorescence intensity of the donor decreases (FLDD). […] To obtain an informative Z′ value, we calculated it based on at least three independent experiments amounting to 144 samples for both binding and non-binding control data sets (Figure 4B,E). […] We defined the ‘hit threshold’ as a decrease in readout signal of more than 3 standard deviations (SDs) from the mean signal of the binding control. […]
FRET experiments were carried out in 384-well microtiter plates (Art. No. 3766 Corning, NY, USA, or Art. No. 781906, Greiner Bio-One GmbH, Frickenhausen, Germany) containing a final volume of 20 µL and measured with a microplate reader Infinite M200Pro (Tecan, Männedorf, Switzerland). […] Experiments for the determination of the equilibrium dissociation constants were performed with a filter-based microplate reader Infinite F200Pro (Tecan, Männedorf, Switzerland). […]

S. cerevisiae HSP90 = settings: cited from earlier work
C. albicans HSP90 = target: T3, C. albicans HSP90 (Candida albicans, UniProt P46598); assay: ADP-Glo assay, HSP90 ATPase activity; assay type: biochemical; settings: HSP90 2.5 µM, 1 mM ATP, 1 h 30 °C; Aha1 alone: up to, at 8-fold molar excess; co-incubation: 20 µM each
T3 construct: made in house; host or cells: E. coli BL21(DE3)
T3 sequence (P46598 whole entry): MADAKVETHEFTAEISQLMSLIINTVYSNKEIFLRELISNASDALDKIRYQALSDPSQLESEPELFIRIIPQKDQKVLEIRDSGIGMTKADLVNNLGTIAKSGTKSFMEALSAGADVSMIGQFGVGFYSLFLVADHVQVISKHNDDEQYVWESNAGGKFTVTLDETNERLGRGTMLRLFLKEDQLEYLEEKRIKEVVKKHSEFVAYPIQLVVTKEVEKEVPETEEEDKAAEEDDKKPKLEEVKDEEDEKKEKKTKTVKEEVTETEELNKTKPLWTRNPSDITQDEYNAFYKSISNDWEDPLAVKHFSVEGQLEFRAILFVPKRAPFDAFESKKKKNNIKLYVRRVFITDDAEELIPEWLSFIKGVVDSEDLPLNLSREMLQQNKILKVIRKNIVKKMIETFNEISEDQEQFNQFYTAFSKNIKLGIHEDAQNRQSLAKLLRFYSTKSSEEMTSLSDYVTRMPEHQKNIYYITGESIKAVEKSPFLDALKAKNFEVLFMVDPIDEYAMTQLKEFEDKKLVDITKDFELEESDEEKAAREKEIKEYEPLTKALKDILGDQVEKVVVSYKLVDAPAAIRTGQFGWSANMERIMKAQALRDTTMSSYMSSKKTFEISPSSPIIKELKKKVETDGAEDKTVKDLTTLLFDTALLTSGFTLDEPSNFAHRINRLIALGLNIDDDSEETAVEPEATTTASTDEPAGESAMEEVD
Protocol: The ADP-Glo™ assay (Promega GmbH, Waldorf, Germany) was performed according to the manufacturer’s protocol. […] The reaction mixture was incubated for 1 h at 30 °C. After 5 min re-tempering to room temperature, 5 µL of ADP-Glo reagent was added to the samples to terminate the kinase reaction and deplete the remaining ATP for 40 min at room temperature. Afterward, 10 µL Kinase Detection Reagent was added to convert the generated ADP back to ATP. In that way, synthesized ATP was measured in a luciferase/luciferin reaction. Luminescence was detected with an Infinite M200 Pro (Tecan, Männedorf, Switzerland) in a 384-well microtiter plate (Art. No. 781075, Greiner Bio-One GmbH, Frickenhausen, Germany) after 40 min for 100 µM ATP samples, or 60 min for 1 mM ATP samples. The luminescence intensity of the sample containing only HSP90 was set to 100%, and the luminescence intensities of the other samples were related to it.

T2 sequence (P46598 whole entry): as above
T1 sequence (P46598 whole entry, stated change not applied): as the sequence (P46598 whole entry) above

| Molecule | effect on FRET emission (EmFRET) versus untreated control [1] | hit identification (EmFRET/FLDD decrease of more than 3 SDs from binding control mean) [2] | ATPase activity, % of initial value in the absence of Sba1 (S. cerevisiae HSP90; decrease to up) | increase in HSP90 ATPase activity (C. albicans HSP90) | stimulation in ATPase activity (S. cerevisiae HSP90; up to, 5–10-fold molar excess Aha1/HSP90, ref 32 (Wolmarans et al.)) |
| --- | --- | --- | --- | --- | --- |
| Sba1: unlabeled C. albicans HSP90 co-chaperone Sba1 (UniProtKB A0A1D8PQ94), His6-tagged; yeast Sba1 in cited values (protein, left off: His6, N-terminal, state not stated, unlabeled C. albicans HSP90 co-chaperone Sba1 (UniProtKB A0A1D8PQ94), His6-tagged; yeast Sba1 in cited values) MSSTTTQTPTVLWAQRSSEDDAAKNIIYLTIQISDPIDLKIDLKSDHLIIDSKSNDSVYSSIDYHLQIDFFKEIDPDQSKINTENGSHIFMILRKKDQQEEYWPRLTKEKLKYHYIKTDFDKWVDEDEQDEVKDDPNDFGGPGGPGGAMDFSQMLSGMGGLGGAGGSGGPGGVDLSALASQLGQAGGAGGAAGLDGEEGEEGEAEAKEAQEESNTTATEKE | significant reduction in FRET emission | identified as disrupting; also recorded: identified as hits | 50% | – | – |
| Aha1: C. albicans co-chaperone Aha1, activator of HSP90 ATPase (A0A1D8PU72); yeast Aha1 in cited values (protein, left off: His6, N-terminal, state not stated, yeast Aha1 in cited values) MVVNNPNNWHWVDKNCLPWSVDYFKDKLINLKVTDGTNNVHISEVSSVEGDVDVSQRKGKVISLFDIKIVLTFKGNTAKDDNVSGSITIPELTYDSEVDGLQFDISIYNETAENSGITDLIKKQLIPQLRTALMKFGPDLIEINSKDIQLSQDKVTSTYTKANQSSTIAATADHPKSESKPVEKKTETHSTSNIARKVVSEKDSSTVPKYNTTTLHLEPSFNTSAEQIYLTLLDEARIGAWTRSAPVIEKFPPKEGSEFKFFGGSVSGKFLKLVPNEQIVELWRLDDWKAGHFAQLDMKLVQSSGETKLVVKFSGIPIGEEERVKNNFEERYIRSIKITFGFGAVL | – | – | – | 7 fold | ~ 20 fold |
